Assay results from paper PMC9262599, “DNA G-quadruplex structure participates in regulation of lipid metabolism through acyl-CoA binding protein”.

B1: FAM-Mut BmACBP G4 (ssDNA)
DNA: GTCGTGAAGGTGTTGATGGAGTGTAGGTT
B2: FAM-BmACBP G4 (folded with K+) (structured_DNA)
DNA: GTCGGGAAGGGGTTGGGGGGGGGTAGGTT

Key:
BmLARK [1] = target: T1, BmLARK (Bombyx mori, UniProt Q5I7M6 1-343); assay: EMSA; 50 mM K+; 10 mM Tris pH 7.5, 50 mM KCl, 1 mM DTT, room temperature, 20 min; 2 uM probe, 2 ug BmLARK or 1 ug BG4 in 20 ul; 4% PAGE on ice; settings: protein: recombinant; tags: GST (pGEX-6P-1); label: 5' 6-FAM
T1 sequence (Q5I7M6 entry or part of it): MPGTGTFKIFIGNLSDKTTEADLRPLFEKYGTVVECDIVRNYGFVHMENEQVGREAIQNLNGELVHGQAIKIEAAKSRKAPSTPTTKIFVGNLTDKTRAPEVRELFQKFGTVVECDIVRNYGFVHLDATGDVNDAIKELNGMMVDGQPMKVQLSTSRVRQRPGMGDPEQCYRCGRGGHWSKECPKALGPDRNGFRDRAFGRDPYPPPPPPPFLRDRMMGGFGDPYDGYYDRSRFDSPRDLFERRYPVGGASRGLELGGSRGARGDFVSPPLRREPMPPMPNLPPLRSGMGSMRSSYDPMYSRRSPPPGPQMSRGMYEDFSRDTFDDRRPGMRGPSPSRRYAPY

BmLARK [2] = target: T1, BmLARK; assay: EMSA; 50 mM K+; reduced by unlabelled same-sequence competitor; 10 mM Tris pH 7.5, 50 mM KCl, 1 mM DTT, room temperature, 20 min; 2 uM probe, 2 ug BmLARK or 1 ug BG4 in 20 ul; 4% PAGE on ice; settings: protein: recombinant; tags: GST (pGEX-6P-1); label: 5' 6-FAM; G-quadruplex

| Binder | binding result (BmLARK [1]) | binding result (BmLARK [2]) |
| --- | --- | --- |
| B1 | no binding | – |
| B2 | – | binds |
